T1: Cdc45-5FLAG (S. cerevisiae), Q08032
T1 chain: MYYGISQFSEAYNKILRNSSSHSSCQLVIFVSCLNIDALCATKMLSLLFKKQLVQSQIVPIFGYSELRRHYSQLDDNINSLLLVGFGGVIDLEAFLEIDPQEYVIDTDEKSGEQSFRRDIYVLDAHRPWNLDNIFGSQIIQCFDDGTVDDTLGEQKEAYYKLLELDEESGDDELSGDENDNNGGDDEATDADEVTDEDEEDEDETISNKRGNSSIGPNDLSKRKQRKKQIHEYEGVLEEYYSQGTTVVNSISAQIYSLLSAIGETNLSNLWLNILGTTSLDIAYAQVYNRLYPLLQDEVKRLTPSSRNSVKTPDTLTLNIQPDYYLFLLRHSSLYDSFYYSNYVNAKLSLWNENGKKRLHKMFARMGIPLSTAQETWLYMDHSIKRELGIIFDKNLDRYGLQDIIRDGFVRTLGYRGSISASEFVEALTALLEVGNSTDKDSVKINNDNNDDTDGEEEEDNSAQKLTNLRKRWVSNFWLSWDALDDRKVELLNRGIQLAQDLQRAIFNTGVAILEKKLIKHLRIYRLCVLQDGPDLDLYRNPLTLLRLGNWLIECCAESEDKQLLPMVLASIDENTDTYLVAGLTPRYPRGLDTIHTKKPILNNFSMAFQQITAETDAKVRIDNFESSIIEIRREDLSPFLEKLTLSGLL

B1: Psf2-5FLAG (natural protein)
chain: MSLPAHLQQTFSPEEIQFIVENEPIKIFPRITTRQKIRGDDRGTGNHTRWQLITTDDKALNNMVAMRSTEVVLWIALLLKQQSKCSIVAPQWLTTKELDRKIQYEKTHPDRFSELPWNWLVLARILFNKAKDDFHDPIHELRGKIQDLREIRQIKVLKGLKYLNESHLQLDNLSLLEINELRPFITEIMDKLREIHTASLTAGTENDEEEFNI
B2: Cdc45-5FLAG, Q08032 1-650 (natural protein)
chain: T1 chain

How the values were obtained:
[1] = biological target: the molecule itself; experiment: co-sedimentation
[2] = biological target: T1, Cdc45-5FLAG (S. cerevisiae), Q08032; experiment: co-sedimentation; settings: remark: other sources report otherwise

Binder	stoichiometry N [1]	stoichiometry N [2]
B1	2	–
B2	–	2

Source: paper doi:10.1101/388470 (bioRxiv, 2018)
